Assays:
[1] = molecular target: the molecule itself; assay: SEC-MALS; Superdex 75 10/300 GL, 10 mg/mL, 20 mM Tris pH 8.0, 200 mM NaCl; data not shown
[2] = molecular target: the molecule itself; assay: SEC; analytical SEC, Superose 6 PC 3.2/30, 5.0 mg/mL, 20 mM Tris pH 8.0 with 200, 500 or 1000 mM NaCl, 0.05 mL/min; apparent molecular weight from gel filtration standards

B1: D. melanogaster Oskar LOTUS domain, residues 139-241 (Losk139–241), purified (domain or fragment)
chain: MTIIESNYISVREEYPDIDSEVRAILLSHAQNGITISSIKSEYRKLTGNPFPLHDNVTDFLLTIPNVTAECSESGKRIFNLKASLKNGHLLDMVLNQKERTSDLEVLFQ
notes: Oskar, D. melanogaster, LOTUS domain residues 139-241 (Losk139–241); numbers on the long isoform (1-606); remnant of the 3C protease cleavage site left at the C-terminus after removal of the decahistidine tag; Crystal form 4 was grown from HgCl2-derivatised protein; also called fly LOTUS domain; source: E. coli BL21(DE3), purified (Ni-NTA, 3C protease cleavage, gel filtration); not shown: His10, …
stoichiometry N [1]: 2 | stoichiometry N [2]: ~2

— paper doi:10.1101/2025.05.02.651258, “The LOTUS domain of Oskar promotes localisation of both protein and mRNA components of Drosophila germ plasm” (bioRxiv, 2025)
